Measurements published in patent publication US20230340140A1 (INNATE PHARMA, published 2023).

Columns and labels:
Human C5aR (C5aR1) [1] = target: T1, Human C5aR (C5aR1) (human, UniProt P21730 1-350); experiment: cell-based or functional assay
T1 sequence: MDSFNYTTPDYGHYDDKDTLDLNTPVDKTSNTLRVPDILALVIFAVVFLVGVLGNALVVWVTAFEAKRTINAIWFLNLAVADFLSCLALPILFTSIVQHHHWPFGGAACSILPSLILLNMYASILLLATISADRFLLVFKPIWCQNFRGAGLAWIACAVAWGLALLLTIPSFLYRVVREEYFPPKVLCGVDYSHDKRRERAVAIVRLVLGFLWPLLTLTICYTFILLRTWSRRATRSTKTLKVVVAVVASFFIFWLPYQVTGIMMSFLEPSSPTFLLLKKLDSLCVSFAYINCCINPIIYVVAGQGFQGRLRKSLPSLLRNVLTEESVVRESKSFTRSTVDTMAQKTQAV

Human C5aR (C5aR1) [2] = target: T1, Human C5aR (C5aR1); experiment: EC50 of C5aR saturation in the PD part of the PKPD model, derived from PK/receptor saturation data of the phase I trial; PD parameter of the PKPD model, from phase I PK/receptor saturation data; not in vitro
From the text: A PKPD model was built in Phoenix 64 WinNonLin version 8.1.0.3530, to predict avdoralimab serum concentrations in blood post s.c. administration, as well as C5aR saturation. Pharmacokinetics of therapeutic mAbs are usually modelled using a two-compartment model (Deng et al. 2011 MAbs 3(1): 61-66). Based on the PK results described in Example 1, avdoralimab is expected to display PK properties similar to other therapeutic antibodies in humans, except for compound-specific target-mediated drug disposition (TMDD). This TMDD effect can be modelled by an additional non-linear elimination added to the model (Wang et al. 2016 Biopharm. Drug Dispos. 37: 51-65). […] Absorption rate (Ka) and bioavailability (Ba) for s.c. administration were estimated based on PK results for Example 1. EC₅₀ in the PD part of PKPD model is derived from PK/RSA data observed in phase I clinical trial, and is similar to EC₅₀ binding to human neutrophils in vitro=0.34 nM=51 ng/mL in FACS titration assays.

Human C5aR (C5aR1) [3] = target: T1, Human C5aR (C5aR1); experiment: FACS titration on human neutrophils in vitro; FACS titration on human neutrophils in vitro, given in nM

B1: Avdoralimab (antibody, human IgG1, kappa, V domains shown)
VH: EVQLVESGGGLVQPGGSLRLSCAASGFTFSSYVMHWVRQATGKGLEWVSAIDTGGGTYYADSVKGRFTISRENAKNSLYLQMNSLRAGDTAVYYCARDYYYYASGSYYKAFDIWGQGTMVTVSS
VL: EIVLTQSPGTLSLSPGERATLSCRASQSVSSRYLAWYQQKPGQAPRLLIYGASSRATGIPDRFSGSGSGTDFTLTISRLEPEDFAVYYCQQYGSPLTFGQGTKLEIKR
notes: also called IPH5401
For B1, the “EC50 for inhibition of C5a-induced CD11b expression on neutrophils in human whole blood (flow cytometry, MedFI, normalized)” value (Human C5aR (C5aR1) [1]) was 0.34 µg/mL, the EC50 (Human C5aR (C5aR1) [2]) was 0.05 µg/mL and the EC50 (Human C5aR (C5aR1) [3]) was 340 pM.
